The values that follow are results of earlier work, collected in paper PMC9736027.

This data set addresses Nrf2 (Homo sapiens) (UniProt Q16236).
Chain of UniProt Q16236 (Q16236 whole entry): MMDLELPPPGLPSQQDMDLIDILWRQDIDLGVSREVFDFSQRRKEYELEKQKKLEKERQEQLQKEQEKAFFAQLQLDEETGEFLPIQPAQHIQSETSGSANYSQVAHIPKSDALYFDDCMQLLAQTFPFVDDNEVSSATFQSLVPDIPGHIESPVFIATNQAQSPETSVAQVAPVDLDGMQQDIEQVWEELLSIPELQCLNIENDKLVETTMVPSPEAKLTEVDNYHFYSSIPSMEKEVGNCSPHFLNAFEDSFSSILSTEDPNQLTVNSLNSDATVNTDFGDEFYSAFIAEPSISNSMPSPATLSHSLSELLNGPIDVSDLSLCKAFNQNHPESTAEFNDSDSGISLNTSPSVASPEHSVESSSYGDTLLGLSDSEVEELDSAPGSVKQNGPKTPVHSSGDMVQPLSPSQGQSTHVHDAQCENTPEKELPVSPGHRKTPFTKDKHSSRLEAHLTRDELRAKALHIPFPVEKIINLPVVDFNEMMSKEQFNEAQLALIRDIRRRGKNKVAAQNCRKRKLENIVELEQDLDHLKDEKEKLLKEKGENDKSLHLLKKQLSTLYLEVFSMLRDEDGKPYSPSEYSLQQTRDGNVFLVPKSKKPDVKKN

Usually Kd stands for the equilibrium constant for the complex coming apart. For the substance Keap1 (from UniProt Q14145), the Kd is 20 nM.
